{"source": "patent US20240010750A1", "about": "(Bayer, published 2024)", "binders": {"B1": {"name": "TPP-12387 hIgG1 (antibody, V domains shown)", "VH": "EVQLLESGGGLVQPGGSLRLSCAASGFTFDDYAMSWVRQAPGKGLEWVSAIGTGGGTYYADSVKGRFTISRDNSKNTLYLQMNSLRAEDTAVYYCAREYYDSSGYYHLDYWGQGTLVTVSS", "VL": "not shown", "notes": "Fully human IgG1 lambda from the BioInvent n-CoDeR Fab lambda library; parental lead antibody"}}, "key": {"[1]": {"molecular_target": "T1, rabbit alpha2-Antiplasmin (rabbit (Oryctolagus cuniculus))", "T1 construct": "Made in house in HEK293 cells, purified by Ni-IMAC and SEC (a His tag is implied but not described); also called rabbit A2AP; Oryctolagus cuniculus A2AP", "T1 chain": "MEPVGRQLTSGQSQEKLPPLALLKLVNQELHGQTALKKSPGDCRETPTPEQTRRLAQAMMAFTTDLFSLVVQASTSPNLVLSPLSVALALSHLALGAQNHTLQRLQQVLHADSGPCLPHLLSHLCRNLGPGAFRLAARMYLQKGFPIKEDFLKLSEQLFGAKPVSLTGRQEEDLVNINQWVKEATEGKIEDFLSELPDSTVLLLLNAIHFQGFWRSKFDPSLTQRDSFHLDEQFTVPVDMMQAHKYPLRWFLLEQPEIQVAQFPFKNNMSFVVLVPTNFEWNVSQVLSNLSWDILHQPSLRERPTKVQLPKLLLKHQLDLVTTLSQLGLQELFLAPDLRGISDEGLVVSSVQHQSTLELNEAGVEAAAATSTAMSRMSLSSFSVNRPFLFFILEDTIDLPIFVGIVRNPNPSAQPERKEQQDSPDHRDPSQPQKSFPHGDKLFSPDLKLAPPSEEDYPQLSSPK", "assay": "ELISA (Example 3): antigen coated at 1 ug/ml, detection with anti-human lambda light chain-peroxidase and Amplex Red, RFU [right panel]", "protocol": "(§1) A standard ELISA format was used for analyzing the binding affinity of Fabs of this invention to human and rabbit alpha-2-Antiplasmin, respectively. Antigens were coated to black 384 well Maxisorp microtiter plates (Nunc; catalogue number 460518), diluted to a concentration of 1 μg/ml in 1× Coating Buffer (Candor Bioscience; catalogue number 121125). Plates were incubated overnight at 4° C. After overnight incubation, plates were washed 2× with 50 μl/well using PBS+0.05% Tween 20. Following this, 50 μl/well of blocking buffer (Smart Block; Candor Bioscience; catalogue number 113500) was added and the plates were incubated for 1 hour at room temperature. Afterwards, plates were washed for 3× using […] PBS+0.05% Tween 20 buffer. Fabs of this invention were added at different concentrations in a final volume of 30 μl/well. Plates were incubated for 1 hour at room temperature. Following this incubation step, plates were washed for 3× using 50 μl/well of a PBS+0.05% Tween 20 buffer. For the detection of bound Fabs and full-length antibodies, the anti-Human Lambda Light Chains (Bound and Free)—Peroxidase antibody (Sigma; catalogue number A5175) was diluted by the factor of 1:10.000 in 10% Blocking Buffer. […]\n(§2) For measurement, the Infinite f500 reader (Tecan) was used. Measurement mode: Fluorescence; Top reading; Ex 535 nm; Em 590 nm."}, "[2]": {"molecular_target": "T1, rabbit alpha2-Antiplasmin", "assay": "ELISA, coated antigen, 3rd exp.", "protocol": "as §1, §2"}, "human alpha2-Antiplasmin [3]": {"molecular_target": "T2, human alpha2-Antiplasmin (human, UniProt P08697 40-491)", "T2 construct": "Bought (antibodies online, ABIN2544306); also called human A2AP; a2AP", "T2 sequence": "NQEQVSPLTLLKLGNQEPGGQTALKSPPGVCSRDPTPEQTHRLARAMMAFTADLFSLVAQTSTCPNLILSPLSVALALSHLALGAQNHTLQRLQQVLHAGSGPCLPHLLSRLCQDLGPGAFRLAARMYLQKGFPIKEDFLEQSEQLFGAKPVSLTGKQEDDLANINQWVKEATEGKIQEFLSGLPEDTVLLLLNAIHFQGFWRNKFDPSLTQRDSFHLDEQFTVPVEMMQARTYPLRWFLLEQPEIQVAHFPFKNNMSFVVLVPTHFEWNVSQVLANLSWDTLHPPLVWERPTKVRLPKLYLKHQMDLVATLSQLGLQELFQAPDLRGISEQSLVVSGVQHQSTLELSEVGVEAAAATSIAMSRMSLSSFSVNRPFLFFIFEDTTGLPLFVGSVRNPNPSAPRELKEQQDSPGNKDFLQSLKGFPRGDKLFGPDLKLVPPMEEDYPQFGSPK", "assay": "ELISA, coated antigen, 3rd exp.", "protocol": "as §1, §2"}, "[4]": {"molecular_target": "T1, rabbit alpha2-Antiplasmin", "assay": "SPR Biacore T200, antibody captured on protein G chip, A2AP as analyte, 25 C"}, "human alpha2-Antiplasmin [5]": {"molecular_target": "T2, human alpha2-Antiplasmin", "assay": "SPR Biacore T200, antibody captured on protein G chip, A2AP as analyte, 25 C"}, "[6]": {"molecular_target": "T3, cynomolgus alpha2-Antiplasmin (cynomolgus (Macaca fascicularis), UniProt P08697 28-491 (human entry))", "T3 construct": "Made in house in the same way as the rabbit protein; also called cynomolgus A2AP; Macaca fascicularis A2AP", "T3 chain": "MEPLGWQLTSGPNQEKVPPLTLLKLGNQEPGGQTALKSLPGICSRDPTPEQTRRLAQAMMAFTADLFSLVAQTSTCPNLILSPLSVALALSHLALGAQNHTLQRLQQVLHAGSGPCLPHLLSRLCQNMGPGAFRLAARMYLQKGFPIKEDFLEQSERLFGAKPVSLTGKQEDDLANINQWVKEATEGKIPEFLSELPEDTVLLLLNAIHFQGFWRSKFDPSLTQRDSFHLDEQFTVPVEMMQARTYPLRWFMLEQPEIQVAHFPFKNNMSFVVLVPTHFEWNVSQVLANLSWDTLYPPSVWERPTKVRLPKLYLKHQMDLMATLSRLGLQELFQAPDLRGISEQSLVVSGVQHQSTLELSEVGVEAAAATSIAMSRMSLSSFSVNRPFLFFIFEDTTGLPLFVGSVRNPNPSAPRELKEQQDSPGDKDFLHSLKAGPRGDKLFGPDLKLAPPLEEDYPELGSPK", "assay": "SPR Biacore T200, antibody captured on protein G chip, A2AP as analyte, 25 C"}, "human Plasmin": {"molecular_target": "human Plasmin (human, UniProt P00747 97-580; P00747 581-810, limits assumed)", "sequence (P00747 97-580 limits assumed, chain 1 of 2)": "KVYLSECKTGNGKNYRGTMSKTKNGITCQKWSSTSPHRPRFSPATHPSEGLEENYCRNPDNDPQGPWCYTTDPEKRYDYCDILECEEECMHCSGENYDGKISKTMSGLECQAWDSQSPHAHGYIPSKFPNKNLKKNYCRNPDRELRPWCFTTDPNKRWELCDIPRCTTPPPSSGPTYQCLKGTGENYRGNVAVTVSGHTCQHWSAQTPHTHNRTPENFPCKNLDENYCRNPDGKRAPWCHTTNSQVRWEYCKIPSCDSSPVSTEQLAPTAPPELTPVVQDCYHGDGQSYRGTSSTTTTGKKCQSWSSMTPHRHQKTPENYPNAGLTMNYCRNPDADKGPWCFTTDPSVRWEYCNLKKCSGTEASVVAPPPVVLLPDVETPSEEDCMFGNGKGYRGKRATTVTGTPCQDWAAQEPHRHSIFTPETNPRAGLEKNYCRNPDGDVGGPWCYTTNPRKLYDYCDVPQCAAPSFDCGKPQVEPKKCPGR", "sequence (P00747 581-810 limits assumed, chain 2 of 2)": "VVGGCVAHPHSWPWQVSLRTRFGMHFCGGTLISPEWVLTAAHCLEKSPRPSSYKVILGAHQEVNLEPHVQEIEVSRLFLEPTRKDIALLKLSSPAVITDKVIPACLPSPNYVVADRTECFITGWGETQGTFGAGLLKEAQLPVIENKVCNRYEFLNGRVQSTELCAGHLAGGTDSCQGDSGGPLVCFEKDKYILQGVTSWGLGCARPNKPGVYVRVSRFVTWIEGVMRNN", "assay": "cell-based or functional assay"}, "[7]": {"molecular_target": "T3, cynomolgus alpha2-Antiplasmin", "assay": "cell-based or functional assay"}}}
{"binder": "B1", "values": [{"measurement": "EC50 (read off the curve)", "setting": "[1]", "value": "~6", "unit": "nM"}, {"measurement": "EC50", "setting": "[2]", "value": 6.2, "unit": "nM"}, {"measurement": "EC50", "setting": "human alpha2-Antiplasmin [3]", "value": 130, "unit": "nM"}, {"measurement": "Kd", "setting": "[4]", "value": 43, "unit": "nM"}, {"measurement": "Kd", "setting": "human alpha2-Antiplasmin [5]", "value": 180, "unit": "nM"}, {"measurement": "Kd", "setting": "[6]", "value": 100, "unit": "nM"}, {"measurement": "IC50 [M], inhibition of plasmin proteolytic activity", "setting": "human Plasmin", "value": "> 1e-05", "unit": "M"}, {"measurement": "EC50 (read off the curve); function blocking assay (Example 4), RFU of plasmin substrate cleavage", "setting": "[7]", "value": "~200", "unit": "nM"}]}
